Experimental data taken from article PMC9616490.

Assays:
Assay in all cases: cryo-EM structure
Details in all cases: remark: other sources report otherwise
[1] = target: T1, human Na-K-2Cl cotransporter-1 (hNKCC1), full-length wild type (human), P55011
T1 chain: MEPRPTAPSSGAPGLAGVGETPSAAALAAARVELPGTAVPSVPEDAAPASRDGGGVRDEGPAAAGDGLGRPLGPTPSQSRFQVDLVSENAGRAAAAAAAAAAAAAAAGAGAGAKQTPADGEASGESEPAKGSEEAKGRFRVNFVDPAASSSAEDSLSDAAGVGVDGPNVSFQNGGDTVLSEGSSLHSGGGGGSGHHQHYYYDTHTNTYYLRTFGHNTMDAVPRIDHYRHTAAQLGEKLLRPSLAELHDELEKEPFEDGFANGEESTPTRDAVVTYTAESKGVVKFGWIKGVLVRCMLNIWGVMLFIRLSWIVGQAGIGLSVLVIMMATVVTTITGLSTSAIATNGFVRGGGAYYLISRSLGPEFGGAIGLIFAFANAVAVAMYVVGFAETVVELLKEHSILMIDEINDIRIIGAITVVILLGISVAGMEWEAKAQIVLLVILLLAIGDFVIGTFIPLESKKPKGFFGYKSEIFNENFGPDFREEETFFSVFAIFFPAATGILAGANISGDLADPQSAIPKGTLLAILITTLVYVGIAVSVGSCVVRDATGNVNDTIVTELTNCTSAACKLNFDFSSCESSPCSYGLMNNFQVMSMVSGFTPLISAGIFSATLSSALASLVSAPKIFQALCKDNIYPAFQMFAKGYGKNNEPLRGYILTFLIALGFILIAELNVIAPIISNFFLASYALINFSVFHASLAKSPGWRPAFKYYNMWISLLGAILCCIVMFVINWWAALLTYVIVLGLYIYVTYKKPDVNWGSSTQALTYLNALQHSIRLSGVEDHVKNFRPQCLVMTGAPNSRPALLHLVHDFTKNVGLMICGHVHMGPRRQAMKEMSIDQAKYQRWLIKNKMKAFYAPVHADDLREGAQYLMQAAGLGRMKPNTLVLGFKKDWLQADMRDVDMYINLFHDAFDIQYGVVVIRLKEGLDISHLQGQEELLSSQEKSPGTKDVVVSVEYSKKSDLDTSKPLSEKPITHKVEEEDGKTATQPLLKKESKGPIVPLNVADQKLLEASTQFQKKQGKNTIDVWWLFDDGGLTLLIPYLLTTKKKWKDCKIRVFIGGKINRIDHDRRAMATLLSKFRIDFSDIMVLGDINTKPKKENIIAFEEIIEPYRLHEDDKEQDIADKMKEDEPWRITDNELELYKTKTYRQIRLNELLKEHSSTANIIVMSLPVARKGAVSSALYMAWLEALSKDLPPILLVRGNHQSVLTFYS

[2] = target: T1, human Na-K-2Cl cotransporter-1 …
[3] = target: T1, human Na-K-2Cl cotransporter-1 …

stoichiometry N [1]: 2
stoichiometry N [2]: 2
stoichiometry N [3]: 2
B1: human Na-K-2Cl cotransporter-1 (hNKCC1), full-length wild type, P55011 1-1212 (natural protein)
chain: MEPRPTAPSSGAPGLAGVGETPSAAALAAARVELPGTAVPSVPEDAAPASRDGGGVRDEGPAAAGDGLGRPLGPTPSQSRFQVDLVSENAGRAAAAAAAAAAAAAAAGAGAGAKQTPADGEASGESEPAKGSEEAKGRFRVNFVDPAASSSAEDSLSDAAGVGVDGPNVSFQNGGDTVLSEGSSLHSGGGGGSGHHQHYYYDTHTNTYYLRTFGHNTMDAVPRIDHYRHTAAQLGEKLLRPSLAELHDELEKEPFEDGFANGEESTPTRDAVVTYTAESKGVVKFGWIKGVLVRCMLNIWGVMLFIRLSWIVGQAGIGLSVLVIMMATVVTTITGLSTSAIATNGFVRGGGAYYLISRSLGPEFGGAIGLIFAFANAVAVAMYVVGFAETVVELLKEHSILMIDEINDIRIIGAITVVILLGISVAGMEWEAKAQIVLLVILLLAIGDFVIGTFIPLESKKPKGFFGYKSEIFNENFGPDFREEETFFSVFAIFFPAATGILAGANISGDLADPQSAIPKGTLLAILITTLVYVGIAVSVGSCVVRDATGNVNDTIVTELTNCTSAACKLNFDFSSCESSPCSYGLMNNFQVMSMVSGFTPLISAGIFSATLSSALASLVSAPKIFQALCKDNIYPAFQMFAKGYGKNNEPLRGYILTFLIALGFILIAELNVIAPIISNFFLASYALINFSVFHASLAKSPGWRPAFKYYNMWISLLGAILCCIVMFVINWWAALLTYVIVLGLYIYVTYKKPDVNWGSSTQALTYLNALQHSIRLSGVEDHVKNFRPQCLVMTGAPNSRPALLHLVHDFTKNVGLMICGHVHMGPRRQAMKEMSIDQAKYQRWLIKNKMKAFYAPVHADDLREGAQYLMQAAGLGRMKPNTLVLGFKKDWLQADMRDVDMYINLFHDAFDIQYGVVVIRLKEGLDISHLQGQEELLSSQEKSPGTKDVVVSVEYSKKSDLDTSKPLSEKPITHKVEEEDGKTATQPLLKKESKGPIVPLNVADQKLLEASTQFQKKQGKNTIDVWWLFDDGGLTLLIPYLLTTKKKWKDCKIRVFIGGKINRIDHDRRAMATLLSKFRIDFSDIMVLGDINTKPKKENIIAFEEIIEPYRLHEDDKEQDIADKMKEDEPWRITDNELELYKTKTYRQIRLNELLKEHSSTANIIVMSLPVARKGAVSSALYMAWLEALSKDLPPILLVRGNHQSVLTFYS
